Experimental data: paper PMC9482650, “Quantitative fragmentomics allow affinity mapping of interactomes” (Nature Communications, 2022)

Experiments:
Assay in all cases: holdup assay
Set-up in all cases: key: below the threshold = too weak to quantify, mostly under pKd 3.1 to 4
[1] = target: T1, SIPA1L2, Q9P2F8
T1 sequence (Q9P2F8 945-1036, limits assumed, looked up): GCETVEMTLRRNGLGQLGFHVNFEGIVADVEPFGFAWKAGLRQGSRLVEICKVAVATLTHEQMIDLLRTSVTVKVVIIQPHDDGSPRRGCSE

[2] = target: TJP1_2, Q07157
[3] = target: TJP2_1, Q9UDY2
Chain of TJP2_1, Q9UDY2 (Q9UDY2 24-128): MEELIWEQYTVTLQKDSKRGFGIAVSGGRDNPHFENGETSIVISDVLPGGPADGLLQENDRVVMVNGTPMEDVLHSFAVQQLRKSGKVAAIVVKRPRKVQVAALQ

[4] = target: IL16_1, Q14005
Chain of IL16_1, Q14005 (Q14005 210-306): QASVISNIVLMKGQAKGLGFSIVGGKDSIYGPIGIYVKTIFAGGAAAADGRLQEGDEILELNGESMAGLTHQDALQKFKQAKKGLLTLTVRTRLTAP

[5] = target: T2, SHANK1, Q9Y566
T2 sequence (Q9Y566 658-767, limits assumed, looked up): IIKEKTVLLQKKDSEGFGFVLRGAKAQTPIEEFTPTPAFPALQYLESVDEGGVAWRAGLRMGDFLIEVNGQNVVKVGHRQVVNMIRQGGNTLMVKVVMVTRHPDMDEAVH

[6] = target: ARHGEF12, Q9NZN5-2
Chain of ARHGEF12, Q9NZN5-2 (Q9NZN5 other isoform, or with tags, fused parts or gaps): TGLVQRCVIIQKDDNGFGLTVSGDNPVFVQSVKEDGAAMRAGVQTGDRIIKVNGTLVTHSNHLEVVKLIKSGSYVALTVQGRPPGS

[7] = target: T3, GRIP1_5, Q9Y3R0
T3 sequence (Q9Y3R0 568-668, limits assumed, looked up): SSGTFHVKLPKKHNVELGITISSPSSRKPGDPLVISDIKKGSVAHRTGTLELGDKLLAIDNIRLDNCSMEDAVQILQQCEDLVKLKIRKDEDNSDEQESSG

[8] = target: DLG4_3, P78352
Chain of DLG4_3, P78352 (P78352 306-403): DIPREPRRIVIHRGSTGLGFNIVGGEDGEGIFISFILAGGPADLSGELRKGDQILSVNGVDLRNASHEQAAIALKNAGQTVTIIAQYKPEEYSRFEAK

[9] = target: SCRIB_2, Q14160
Chain of SCRIB_2, Q14160 (Q14160 857-960): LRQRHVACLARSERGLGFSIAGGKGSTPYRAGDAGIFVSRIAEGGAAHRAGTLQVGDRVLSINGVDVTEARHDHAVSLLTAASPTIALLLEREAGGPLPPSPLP

[10] = target: T4, LIN7A, O14910
T4 sequence (O14910 103-200, limits assumed, looked up): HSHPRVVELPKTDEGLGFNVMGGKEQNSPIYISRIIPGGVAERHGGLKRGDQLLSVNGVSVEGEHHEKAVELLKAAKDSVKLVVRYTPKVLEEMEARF

[11] = target: T5, MPP6, Q9NZW5
T5 sequence (Q9NZW5 125-219, limits assumed, looked up): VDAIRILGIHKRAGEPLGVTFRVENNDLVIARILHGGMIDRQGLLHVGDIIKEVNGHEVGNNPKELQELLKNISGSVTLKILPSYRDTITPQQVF

[12] = target: T6, DLG3_3, Q92796
T6 sequence (Q92796 374-475, limits assumed, looked up): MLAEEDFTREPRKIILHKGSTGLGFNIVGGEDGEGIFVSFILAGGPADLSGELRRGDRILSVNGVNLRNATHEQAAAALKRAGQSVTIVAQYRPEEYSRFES

[13] = target: GORASP2, Q9H8Y8
[14] = target: GRASP, Q7Z6J2
Chain of GRASP, Q7Z6J2 (Q7Z6J2 96-193): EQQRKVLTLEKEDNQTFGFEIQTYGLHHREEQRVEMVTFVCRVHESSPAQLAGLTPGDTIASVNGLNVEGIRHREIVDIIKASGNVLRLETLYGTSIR

[15] = target: MAGI3_2, Q5TCQ9
Chain of MAGI3_2, Q5TCQ9 (Q5TCQ9 398-503): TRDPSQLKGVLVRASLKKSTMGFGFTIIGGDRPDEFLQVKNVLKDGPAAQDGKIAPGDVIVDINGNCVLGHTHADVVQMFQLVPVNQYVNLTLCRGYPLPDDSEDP

[16] = target: T7, APBA1_1, Q02410
T7 sequence (Q02410 651-752, limits assumed, looked up): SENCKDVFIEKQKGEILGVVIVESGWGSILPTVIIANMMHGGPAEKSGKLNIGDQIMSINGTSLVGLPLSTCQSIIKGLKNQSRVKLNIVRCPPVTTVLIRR

[17] = target: PDLIM1, O00151
Chain of PDLIM1, O00151 (O00151 1-87): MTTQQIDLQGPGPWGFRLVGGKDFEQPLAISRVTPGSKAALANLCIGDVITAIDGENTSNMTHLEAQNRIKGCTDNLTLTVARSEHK

[18] = target: MAGI2_3, Q86UL8
Chain of MAGI2_3, Q86UL8 (Q86UL8 600-682): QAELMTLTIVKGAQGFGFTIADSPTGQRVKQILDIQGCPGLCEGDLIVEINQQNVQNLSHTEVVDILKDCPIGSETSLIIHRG

[19] = target: T8, RADIL, Q96JH8
T8 sequence (Q96JH8 971-1071, limits assumed, looked up): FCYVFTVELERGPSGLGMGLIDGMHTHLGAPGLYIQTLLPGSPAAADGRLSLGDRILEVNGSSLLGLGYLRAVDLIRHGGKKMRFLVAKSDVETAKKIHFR

[20] = target: FRMPD4, Q14CM0
Chain of FRMPD4, Q14CM0 (Q14CM0 67-160): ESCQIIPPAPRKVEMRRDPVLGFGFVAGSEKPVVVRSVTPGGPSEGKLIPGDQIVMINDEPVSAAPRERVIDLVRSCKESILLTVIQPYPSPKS

[21] = target: T9, MPDZ_5, O75970
T9 sequence (O75970 695-796, limits assumed, looked up): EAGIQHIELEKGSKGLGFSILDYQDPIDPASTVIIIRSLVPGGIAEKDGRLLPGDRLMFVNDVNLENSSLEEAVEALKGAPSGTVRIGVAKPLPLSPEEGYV

[22] = target: SCRIB_3, Q14160
Chain of SCRIB_3, Q14160 (Q14160 999-1103): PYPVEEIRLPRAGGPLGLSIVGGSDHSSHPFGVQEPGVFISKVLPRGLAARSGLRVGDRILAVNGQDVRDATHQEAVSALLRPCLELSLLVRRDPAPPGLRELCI

[23] = target: DLG2_2, Q15700
Chain of DLG2_2, Q15700 (Q15700 189-283): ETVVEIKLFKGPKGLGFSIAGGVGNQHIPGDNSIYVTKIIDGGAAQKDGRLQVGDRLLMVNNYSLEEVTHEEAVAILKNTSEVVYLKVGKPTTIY

[24] = target: LDB3, O75112
Chain of LDB3, O75112 (O75112 1-94): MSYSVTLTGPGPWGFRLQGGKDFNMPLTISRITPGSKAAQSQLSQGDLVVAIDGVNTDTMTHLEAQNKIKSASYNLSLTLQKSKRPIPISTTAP

[25] = target: MAGI1_2, Q96QZ7
Chain of MAGI1_2, Q96QZ7 (Q96QZ7 456-580): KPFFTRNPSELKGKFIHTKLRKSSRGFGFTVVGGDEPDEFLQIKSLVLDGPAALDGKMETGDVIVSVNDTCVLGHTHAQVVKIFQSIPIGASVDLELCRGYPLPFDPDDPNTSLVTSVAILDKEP

[26] = target: T10, DLG3_2, Q92796
T10 sequence (Q92796 221-321, limits assumed, looked up): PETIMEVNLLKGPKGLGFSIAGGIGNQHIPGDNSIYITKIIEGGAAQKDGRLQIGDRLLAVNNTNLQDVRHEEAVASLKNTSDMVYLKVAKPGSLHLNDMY

[27] = target: DLG5_1, Q8TDM6
Chain of DLG5_1, Q8TDM6 (Q8TDM6 617-713): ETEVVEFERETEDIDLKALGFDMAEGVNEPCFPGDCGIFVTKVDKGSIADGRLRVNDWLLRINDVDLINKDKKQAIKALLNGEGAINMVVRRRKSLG

[28] = target: MAGI2_2, Q86UL8
Chain of MAGI2_2, Q86UL8 (Q86UL8 410-522): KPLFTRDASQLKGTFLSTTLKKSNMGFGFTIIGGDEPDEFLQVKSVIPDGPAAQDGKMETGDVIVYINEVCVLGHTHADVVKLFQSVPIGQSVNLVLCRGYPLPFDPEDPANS

[29] = plain residues with an end cap or a label only (N-terminal biotin on a linker: ado-ado)
[30] = modified: phospho on T at position -2 from the C-terminal residue

Chain of TJP1_2, Q07157 (Q07157 181-274): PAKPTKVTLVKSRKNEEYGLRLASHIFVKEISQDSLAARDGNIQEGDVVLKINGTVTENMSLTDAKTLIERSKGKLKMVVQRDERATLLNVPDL

B1: TMEM178A, Q8NBL3 (peptide)
chain: QLKSGRDSTV
- pKd [1, 29]: below the threshold
- pKd [2, 29]: below the threshold
- pKd [3, 29]: below the threshold
- pKd [4, 29]: below the threshold
- pKd [5, 29]: below the threshold
- pKd [6, 29]: below the threshold
- pKd [7, 29]: below the threshold
- pKd [8, 29]: below the threshold
- pKd [9, 29]: 3.69
- pKd [10, 29]: below the threshold
- pKd [11, 29]: 3.8
- pKd [12, 29]: 3.66
- pKd [13, 29]: below the threshold
- pKd [14, 29]: 3.56
- pKd [15, 29]: 4.12
- pKd [16, 29]: below the threshold
- pKd [17, 29]: below the threshold
- pKd [18, 29]: below the threshold
- pKd [19, 29]: 3.51
- pKd [20, 29]: 3.61
- pKd [21, 29]: 3.56
- pKd [22, 29]: 3.48
- pKd [23, 29]: 4.4
- pKd [24, 29]: below the threshold
- pKd [25, 29]: 3.49
- pKd [26, 29]: 4.35
- pKd [27, 29]: 3.83
- pKd [28, 29]: 4

B2: HPV33-E6_-2P, P06427 (peptide)
chain: SRSRRRETAL
- pKd [1, 30]: below the threshold
- pKd [2, 30]: below the threshold
- pKd [3, 30]: below the threshold
- pKd [4, 30]: below the threshold
- pKd [5, 30]: below the threshold
- pKd [6, 30]: below the threshold
- pKd [7, 30]: below the threshold
- pKd [8, 30]: below the threshold
- pKd [9, 30]: below the threshold
- pKd [10, 30]: below the threshold
- pKd [11, 30]: 3.68
- pKd [12, 30]: below the threshold
- pKd [13, 30]: below the threshold
- pKd [14, 30]: below the threshold
- pKd [15, 30]: below the threshold
- pKd [16, 30]: below the threshold
- pKd [17, 30]: below the threshold
- pKd [18, 30]: below the threshold
- pKd [19, 30]: below the threshold
- pKd [20, 30]: 3.73
- pKd [21, 30]: below the threshold
- pKd [22, 30]: below the threshold
- pKd [23, 30]: below the threshold
- pKd [24, 30]: below the threshold
- pKd [25, 30]: below the threshold
- pKd [26, 30]: below the threshold
- pKd [27, 30]: below the threshold
- pKd [28, 30]: below the threshold

B3: ADRA1D, P25100 (peptide)
chain: DYSNLRETDI
- pKd [1, 29]: below the threshold
- pKd [2, 29]: below the threshold
- pKd [3, 29]: below the threshold
- pKd [4, 29]: 3.59
- pKd [5, 29]: below the threshold
- pKd [6, 29]: 4.03
- pKd [7, 29]: below the threshold
- pKd [8, 29]: below the threshold
- pKd [9, 29]: 4.73
- pKd [10, 29]: below the threshold
- pKd [11, 29]: 3.63
- pKd [12, 29]: below the threshold
- pKd [13, 29]: below the threshold
- pKd [14, 29]: below the threshold
- pKd [15, 29]: below the threshold
- pKd [16, 29]: below the threshold
- pKd [17, 29]: below the threshold
- pKd [18, 29]: below the threshold
- pKd [19, 29]: below the threshold
- pKd [20, 29]: below the threshold
- pKd [21, 29]: below the threshold
- pKd [22, 29]: 5.27
- pKd [23, 29]: 4.35
- pKd [24, 29]: below the threshold
- pKd [25, 29]: below the threshold
- pKd [26, 29]: 4.39
- pKd [27, 29]: 3.5
- pKd [28, 29]: below the threshold

B4: SLCO1B1, Q9Y6L6 (peptide)
chain: SAGADSETHC
- pKd [1, 29]: 3.49
- pKd [2, 29]: below the threshold
- pKd [3, 29]: below the threshold
- pKd [4, 29]: below the threshold
- pKd [5, 29]: below the threshold
- pKd [6, 29]: below the threshold
- pKd [7, 29]: below the threshold
- pKd [8, 29]: below the threshold
- pKd [9, 29]: below the threshold
- pKd [10, 29]: below the threshold
- pKd [11, 29]: 3.58
- pKd [12, 29]: below the threshold
- pKd [13, 29]: below the threshold
- pKd [14, 29]: below the threshold
- pKd [15, 29]: below the threshold
- pKd [16, 29]: below the threshold
- pKd [17, 29]: below the threshold
- pKd [18, 29]: below the threshold
- pKd [19, 29]: below the threshold
- pKd [20, 29]: below the threshold
- pKd [21, 29]: below the threshold
- pKd [22, 29]: 3.88
- pKd [23, 29]: below the threshold
- pKd [24, 29]: below the threshold
- pKd [25, 29]: below the threshold
- pKd [26, 29]: below the threshold
- pKd [27, 29]: below the threshold
- pKd [28, 29]: below the threshold

B5: LPAR1, Q92633 (peptide)
chain: GVHSNDHSVV
- pKd [1, 29]: below the threshold
- pKd [2, 29]: below the threshold
- pKd [3, 29]: below the threshold
- pKd [4, 29]: 4.02
- pKd [5, 29]: below the threshold
- pKd [6, 29]: 3.54
- pKd [7, 29]: below the threshold
- pKd [8, 29]: below the threshold
- pKd [9, 29]: below the threshold
- pKd [10, 29]: below the threshold
- pKd [11, 29]: below the threshold
- pKd [12, 29]: below the threshold
- pKd [13, 29]: 3.61
- pKd [14, 29]: 4.47
- pKd [15, 29]: below the threshold
- pKd [16, 29]: below the threshold
- pKd [17, 29]: below the threshold
- pKd [18, 29]: below the threshold
- pKd [19, 29]: 3.62
- pKd [20, 29]: below the threshold
- pKd [21, 29]: below the threshold
- pKd [22, 29]: below the threshold
- pKd [23, 29]: 3.74
- pKd [24, 29]: below the threshold
- pKd [25, 29]: below the threshold
- pKd [26, 29]: 4.42
- pKd [27, 29]: below the threshold
- pKd [28, 29]: 3.69
